Patent US20030124529

Legend:
[1] = molecular target: rIGFBP-3 (gift of D. Powell), P17936
[2] = molecular target: C-terminally c-myc tagged rIGFBP-5 (human IGFBP-5 followed by a c-myc and His tag, expressed in 293T cells), P24593
[3] = molecular target: rIGFBP-5 (gift of D. Andress), P24593
Sequence of rIGFBP-5 (gift of D. Andress), P24593 (P24593 21-272): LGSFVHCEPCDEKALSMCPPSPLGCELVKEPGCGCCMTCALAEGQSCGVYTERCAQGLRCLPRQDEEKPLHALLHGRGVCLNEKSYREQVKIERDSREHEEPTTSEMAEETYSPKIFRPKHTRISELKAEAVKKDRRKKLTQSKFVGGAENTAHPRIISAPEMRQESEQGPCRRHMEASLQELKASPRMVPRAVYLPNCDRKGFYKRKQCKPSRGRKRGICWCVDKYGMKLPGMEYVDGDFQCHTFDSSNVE

Sequence of C-terminally c-myc tagged rIGFBP-5 (human IGFBP-5 followed by a c-myc and His tag, expressed in 293T cells), P24593 (P24593 other isoform, or with tags, fused parts or gaps): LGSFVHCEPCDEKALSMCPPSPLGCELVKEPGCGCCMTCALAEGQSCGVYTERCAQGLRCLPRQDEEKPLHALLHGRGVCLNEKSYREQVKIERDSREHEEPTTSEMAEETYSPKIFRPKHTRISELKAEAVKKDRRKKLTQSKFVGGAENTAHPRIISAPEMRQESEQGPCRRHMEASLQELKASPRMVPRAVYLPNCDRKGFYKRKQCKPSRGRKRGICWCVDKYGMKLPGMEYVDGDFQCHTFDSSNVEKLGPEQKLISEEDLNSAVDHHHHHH
Sequence of rIGFBP-3 (gift of D. Powell), P17936 (P17936 28-291): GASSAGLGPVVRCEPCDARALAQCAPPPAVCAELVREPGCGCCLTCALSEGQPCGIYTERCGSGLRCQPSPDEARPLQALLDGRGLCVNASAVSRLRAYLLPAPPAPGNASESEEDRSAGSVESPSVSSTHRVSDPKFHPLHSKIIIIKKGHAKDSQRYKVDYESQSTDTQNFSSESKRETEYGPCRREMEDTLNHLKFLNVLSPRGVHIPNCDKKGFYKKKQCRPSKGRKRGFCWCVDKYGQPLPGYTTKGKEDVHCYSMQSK

Row | Protein | proteolytic cleavage, ligand blotting with radiolabeled IGF-II [1] | proteolytic activity, Western blotting using anti-c-myc [2] | proteolytic cleavage, ligand blotting with radiolabeled IGF-II [3] | proteolytic cleavage, SDS-PAGE and N-terminal sequence analysis [2]
1 | recombinant wild-type PAPP-A2 (pregnancy-associated plasma protein-A2), in medium of 293T cells transfected with pPA2 (protein) SPPEESNQNGGEGSYREAETFNSQVGLPILYFSGRRERLLLRPEVLAEIPREAFTVEAWVKPEGGQNNPAIIAGVFDNCSHTVSDKGWALGIRSGKDKGKRDARFFFSLCTDRVKKATILISHSRYQPGTWTHVAATYDGRHMALYVDGTQVASSLDQSGPLNSPFMASCRSLLLGGDSSEDGHYFRGHLGTLVFWSTALPQSHFQHSSQHSSGEEEATDLVLTASFEPVNTEWVPFRDEKYPRLEVLQGFEPEPEILSPLQPPLCGQTVCDNVELISQYNGYWPLRGEKVIRYQVVNICDDEGLNPIVSEEQIRLQHEALNEAFSRYNISWQLSVHQVHNSTLRHRVVLVNCEPSKIGNDHCDPECEHPLTGYDGGDCRLQGRCYSWNRRDGLCHVECNNMLNDFDDGDCCDPQVADVRKTCFDPDSPKRAYMSVKELKEALQLNSTHFLNIYFASSVREDLAGAATWPWDKDAVTHLGGIVLSPAYYGMPGHTDTMIHEVGHVLGLYHVFKGVSERESCNDPCKETVPSMETGDLCADTAPTPKSELCREPEPTSDTCGFTRFPGAPFTNYMSYTDDNCTDNFTPNQVARMHCYLDLVYQQWTESRKPTPIPIPPMVIGQTNKSLTIHWLPPISGVVYDRASGSLCGACTEDGTFRQYVHTASSRRVCDSSGYWTPEEAVGPPDVDQPCEPSLQAWSPEVHLYHMNMTVPCPTEGCSLELLFQHPVQADTLTLWVTSFFMESSQVLFDTEILLENKESVHLGPLDTFCDIPLTIKLHVDGKVSGVKVYTFDERIEIDAALLTSQPHSPLCSGCRPVRYQVLRDPPFASGLPVVVTHSHRKFTDVEVTPGQMYQYQVLAEAGGELGEASPPLNHIHGAPYCGDGKVSERLGEECDDGDLVSGDGCSKVCELEEGFNCVGEPSLCYMYEGDGICEPFERKTSIVDCGIYTPKGYLDQWATRAYSSHEDKKKCPVSLVTGEPHSLICTSYHPDLPNHRPLTGWFPCVASENETQDDRSEQPEGSLKKEDEVWLKVCFNRPGEARAIFIFLTTDGLVPGEHQQPTVTLYLTDVRGSNHSLGTYGLSCQHNPLIINVTHHQNVLFHHTTSVLLNFSSPRVGISAVALRTSSRIGLSAPSNCISEDEGQNHQGQSCIHRPCGKQDSCPSLLLDHADVVNCTSIGPGLMKCAITCQRGFALQASSGQYIRPMQKEILLTCSSGHWDQNVSCLPVDCGVPDPSLVNYANFSCSEGTKFLKRCSISCVPPAKLQGLSPWLTCLEDGLWSLPEVYCKLECDAPPIILNANLLLPHCLQDNHDVGTICKYECKPGYYVAESAEGKVRNKLLKIQCLEGGIWEQGSCIPVVCEPPPPVFEGMYECTNGFSLDSQCVLNCNQEREKLPILCTKEGLWTQEFKLCENLQGECPPPPSELNSVEYKCEQGYGIGAVCSPLCVIPPSDPVMLPENITADTLEHWMEPVKVQSIVCTGRRQWHPDPVLVHCIQSCEPFQADGWCDTINNRAYCHYDGGDCCSSTLSSKKVIPFAADCDLDECTCRDPKAEENQ | IGFBP-3 was partially degraded | In the absence of inhibitors, wild-type PAPP-A2 degraded all rIGFBP-5 (lane 3) | Of the six binding proteins, IGFBP-5 showed complete cleavage | –
2 | purified PAPP-A2 (protein) SPPEESNQNGGEGSYREAETFNSQVGLPILYFSGRRERLLLRPEVLAEIPREAFTVEAWVKPEGGQNNPAIIAGVFDNCSHTVSDKGWALGIRSGKDKGKRDARFFFSLCTDRVKKATILISHSRYQPGTWTHVAATYDGRHMALYVDGTQVASSLDQSGPLNSPFMASCRSLLLGGDSSEDGHYFRGHLGTLVFWSTALPQSHFQHSSQHSSGEEEATDLVLTASFEPVNTEWVPFRDEKYPRLEVLQGFEPEPEILSPLQPPLCGQTVCDNVELISQYNGYWPLRGEKVIRYQVVNICDDEGLNPIVSEEQIRLQHEALNEAFSRYNISWQLSVHQVHNSTLRHRVVLVNCEPSKIGNDHCDPECEHPLTGYDGGDCRLQGRCYSWNRRDGLCHVECNNMLNDFDDGDCCDPQVADVRKTCFDPDSPKRAYMSVKELKEALQLNSTHFLNIYFASSVREDLAGAATWPWDKDAVTHLGGIVLSPAYYGMPGHTDTMIHEVGHVLGLYHVFKGVSERESCNDPCKETVPSMETGDLCADTAPTPKSELCREPEPTSDTCGFTRFPGAPFTNYMSYTDDNCTDNFTPNQVARMHCYLDLVYQQWTESRKPTPIPIPPMVIGQTNKSLTIHWLPPISGVVYDRASGSLCGACTEDGTFRQYVHTASSRRVCDSSGYWTPEEAVGPPDVDQPCEPSLQAWSPEVHLYHMNMTVPCPTEGCSLELLFQHPVQADTLTLWVTSFFMESSQVLFDTEILLENKESVHLGPLDTFCDIPLTIKLHVDGKVSGVKVYTFDERIEIDAALLTSQPHSPLCSGCRPVRYQVLRDPPFASGLPVVVTHSHRKFTDVEVTPGQMYQYQVLAEAGGELGEASPPLNHIHGAPYCGDGKVSERLGEECDDGDLVSGDGCSKVCELEEGFNCVGEPSLCYMYEGDGICEPFERKTSIVDCGIYTPKGYLDQWATRAYSSHEDKKKCPVSLVTGEPHSLICTSYHPDLPNHRPLTGWFPCVASENETQDDRSEQPEGSLKKEDEVWLKVCFNRPGEARAIFIFLTTDGLVPGEHQQPTVTLYLTDVRGSNHSLGTYGLSCQHNPLIINVTHHQNVLFHHTTSVLLNFSSPRVGISAVALRTSSRIGLSAPSNCISEDEGQNHQGQSCIHRPCGKQDSCPSLLLDHADVVNCTSIGPGLMKCAITCQRGFALQASSGQYIRPMQKEILLTCSSGHWDQNVSCLPVDCGVPDPSLVNYANFSCSEGTKFLKRCSISCVPPAKLQGLSPWLTCLEDGLWSLPEVYCKLECDAPPIILNANLLLPHCLQDNHDVGTICKYECKPGYYVAESAEGKVRNKLLKIQCLEGGIWEQGSCIPVVCEPPPPVFEGMYECTNGFSLDSQCVLNCNQEREKLPILCTKEGLWTQEFKLCENLQGECPPPPSELNSVEYKCEQGYGIGAVCSPLCVIPPSDPVMLPENITADTLEHWMEPVKVQSIVCTGRRQWHPDPVLVHCIQSCEPFQADGWCDTINNRAYCHYDGGDCCSSTLSSKKVIPFAADCDLDECTCRDPKAEENQ | – | – | – | PAPP-A2 cleaves IGFBP-5 at one site, between Ser-143 and Lys-144
